From paper PMC11387744

Molecular target: KDM2B^F-box-LRRs/SKP1 dimer (UniProt Q8NHM5)
Assay: ITC

KDM2B^F-box-LRRs/SKP1 dimer, sequence (Q8NHM5 1059-1336, chain 1 of 2): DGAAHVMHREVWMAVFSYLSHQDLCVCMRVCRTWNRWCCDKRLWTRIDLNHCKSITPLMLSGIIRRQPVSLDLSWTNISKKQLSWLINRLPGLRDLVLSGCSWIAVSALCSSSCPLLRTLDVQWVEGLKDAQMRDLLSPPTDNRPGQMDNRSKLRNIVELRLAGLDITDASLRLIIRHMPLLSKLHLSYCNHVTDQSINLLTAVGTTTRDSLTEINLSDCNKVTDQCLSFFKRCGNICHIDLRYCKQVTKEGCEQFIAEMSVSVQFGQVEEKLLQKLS
KDM2B^F-box-LRRs/SKP1 dimer, sequence (P63208 2-163, chain 2 of 2, further chain): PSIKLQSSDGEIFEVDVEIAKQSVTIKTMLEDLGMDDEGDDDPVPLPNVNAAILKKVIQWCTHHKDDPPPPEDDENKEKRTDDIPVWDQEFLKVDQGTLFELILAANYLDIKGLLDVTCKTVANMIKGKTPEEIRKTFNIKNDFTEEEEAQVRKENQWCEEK

fold reduction of the affinity against the wild-type pair | Substance
> 12 fold | BCOR^N1607 (D/E on Poly-D/E^3rd (1624–1631) mutated to Ala)/PCGF1^RAWUL (from UniProt Q6W2J9 1607-1755; Q9BSM1 150-255) (complex)
> 2.5 fold | BCOR^N1607 (D/E on Poly-D/E^2nd (1607–1611) mutated to Ala)/PCGF1^RAWUL (from UniProt Q6W2J9 1607-1755; Q9BSM1 150-255) (complex)
